Source: patent US20180057604A1 (Genentech, published 2018)

T1: cyno TfR extracellular domain (analogous construct to human TfR ecd) (cynomolgus monkey, UniProt Q5RDH6 87-760 (Pongo abelii entry))
T1 construct: also called cynoTfR ecd
T1 chain: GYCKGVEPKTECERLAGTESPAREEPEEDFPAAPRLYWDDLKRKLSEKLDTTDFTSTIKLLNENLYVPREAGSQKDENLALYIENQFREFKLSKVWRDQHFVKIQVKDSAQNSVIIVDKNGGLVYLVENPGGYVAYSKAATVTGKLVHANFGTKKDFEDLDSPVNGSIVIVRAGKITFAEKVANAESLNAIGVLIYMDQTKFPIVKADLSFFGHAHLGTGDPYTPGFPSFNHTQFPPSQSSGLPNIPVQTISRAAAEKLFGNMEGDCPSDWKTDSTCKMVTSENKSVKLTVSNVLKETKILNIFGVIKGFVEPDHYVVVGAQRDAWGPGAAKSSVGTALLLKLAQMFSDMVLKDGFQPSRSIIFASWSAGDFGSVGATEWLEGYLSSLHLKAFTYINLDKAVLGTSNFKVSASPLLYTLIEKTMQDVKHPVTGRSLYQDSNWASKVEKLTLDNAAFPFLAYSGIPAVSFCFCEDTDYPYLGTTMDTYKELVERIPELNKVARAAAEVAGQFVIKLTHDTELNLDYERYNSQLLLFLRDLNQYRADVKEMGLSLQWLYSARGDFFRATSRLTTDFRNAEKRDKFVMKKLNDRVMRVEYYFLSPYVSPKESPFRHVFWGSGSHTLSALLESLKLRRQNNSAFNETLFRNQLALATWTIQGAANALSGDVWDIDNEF


What was measured:
[1] = molecular target: T1, cyno TfR extracellular domain …; assay: ELISA, TfR-coated plate, IgG in culture supernatant;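 also: human or cynomolgus TfR coated at 2 µg/mL, supernatant IgG titrated in 1:5 steps for 1 h, bound antibody read with HRP anti-human Fcγ and TMB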
Method: (§1) The Hu/Cy binding ELISA was performed in maxisorp plates coated with 2 μg/ml of purified human or cyno TfR in PBS at 4° C. overnight. Plates were washed with PBS/0.05% Tween 20 and blocked using Superblock blocking buffer in PBS (Thermo Scientific, Hudson, N.H.). Cell culture supernatants containing the expressed Ala scan variant IgGs were serially diluted 1:5 and added to the wells for 1 h. Plates were washed with PBS/0.05% Tween 20 and 1:1000 diluted HRP-Goat-anti human Fcγ (Jackson ImmunoResearch) was added the plate and incubated for 1 hour at room temperature. Plates were washed with PBS/0.05% Tween 20 and detected using TMB substrate (BioFX Laboratories, Owings Mills).

[2] = molecular target: T2, human TfR extracellular domain with N-terminal His tag (human, UniProt P02786 89-760); assay: as above
T2 construct: Biotinylated in some assays; also called huTfR; HuTfR
Method: as §1

| Binder | EC50 [1] | EC50 [2] |
| --- | --- | --- |
| hu15G11.v5 IgG Ala variant L29A (HVR-L1) (antibody, V domains shown, IgG in cell culture supernatant) VH: EVQLVQSGAEVKKPGASVKVSCKASGYTFTSYWMHWVRQAPGQRLEWIGEINPTNGRTNYIEKFKSRATLTVDKSASTAYMELSSLRSEDTAVYYCARGTRAYHYWGQGTMVTVSS VL: DIQMTQSPSSLSASVGDRVTITCRASDNAYSNLAWYQQKPGKSPKLLVYDATNLADGVPSRFSGSGSGTDYTLTISSLQPEDFATYYCQHFWGTPLTFGQGTKVEIK | 0.9 ng/mL | 0.3 ng/mL |
| hu15G11.v5 IgG Ala variant R56A (HVR-H2) (antibody, name in Kabat numbering, V domains shown, IgG in cell culture supernatant; Kabat numbers after 52a lie one below the linear count) VH: EVQLVQSGAEVKKPGASVKVSCKASGYTFTSYWMHWVRQAPGQRLEWIGEINPTNGATNYIEKFKSRATLTVDKSASTAYMELSSLRSEDTAVYYCARGTRAYHYWGQGTMVTVSS VL: DIQMTQSPSSLSASVGDRVTITCRASDNLYSNLAWYQQKPGKSPKLLVYDATNLADGVPSRFSGSGSGTDYTLTISSLQPEDFATYYCQHFWGTPLTFGQGTKVEIK | 5410 ng/mL | 55.1 ng/mL |
| hu15G11.v5 IgG Ala variant N53A (HVR-L2) (antibody, V domains shown, IgG in cell culture supernatant) VH: EVQLVQSGAEVKKPGASVKVSCKASGYTFTSYWMHWVRQAPGQRLEWIGEINPTNGRTNYIEKFKSRATLTVDKSASTAYMELSSLRSEDTAVYYCARGTRAYHYWGQGTMVTVSS VL: DIQMTQSPSSLSASVGDRVTITCRASDNLYSNLAWYQQKPGKSPKLLVYDATALADGVPSRFSGSGSGTDYTLTISSLQPEDFATYYCQHFWGTPLTFGQGTKVEIK | 0.6 ng/mL | 0.3 ng/mL |
| hu15G11.v5 IgG Ala variant T52A (HVR-L2) (antibody, V domains shown, IgG in cell culture supernatant) VH: EVQLVQSGAEVKKPGASVKVSCKASGYTFTSYWMHWVRQAPGQRLEWIGEINPTNGRTNYIEKFKSRATLTVDKSASTAYMELSSLRSEDTAVYYCARGTRAYHYWGQGTMVTVSS VL: DIQMTQSPSSLSASVGDRVTITCRASDNLYSNLAWYQQKPGKSPKLLVYDAANLADGVPSRFSGSGSGTDYTLTISSLQPEDFATYYCQHFWGTPLTFGQGTKVEIK | 0.3 ng/mL | 0.2 ng/mL |
| hu15G11.v5 IgG Ala variant T30A (HVR-H1) (antibody, name in Kabat numbering, V domains shown, IgG in cell culture supernatant) VH: EVQLVQSGAEVKKPGASVKVSCKASGYTFASYWMHWVRQAPGQRLEWIGEINPTNGRTNYIEKFKSRATLTVDKSASTAYMELSSLRSEDTAVYYCARGTRAYHYWGQGTMVTVSS VL: DIQMTQSPSSLSASVGDRVTITCRASDNLYSNLAWYQQKPGKSPKLLVYDATNLADGVPSRFSGSGSGTDYTLTISSLQPEDFATYYCQHFWGTPLTFGQGTKVEIK | 0.9 ng/mL | 0.4 ng/mL |
| hu15G11.v5 IgG Ala variant N58A (HVR-H2) (antibody, name in Kabat numbering, V domains shown, IgG in cell culture supernatant; Kabat numbers after 52a lie one below the linear count) VH: EVQLVQSGAEVKKPGASVKVSCKASGYTFTSYWMHWVRQAPGQRLEWIGEINPTNGRTAYIEKFKSRATLTVDKSASTAYMELSSLRSEDTAVYYCARGTRAYHYWGQGTMVTVSS VL: DIQMTQSPSSLSASVGDRVTITCRASDNLYSNLAWYQQKPGKSPKLLVYDATNLADGVPSRFSGSGSGTDYTLTISSLQPEDFATYYCQHFWGTPLTFGQGTKVEIK | 80.4 ng/mL | 6.3 ng/mL |
| hu15G11.v5 IgG Ala variant L33A (HVR-L1) (antibody, V domains shown, IgG in cell culture supernatant) VH: EVQLVQSGAEVKKPGASVKVSCKASGYTFTSYWMHWVRQAPGQRLEWIGEINPTNGRTNYIEKFKSRATLTVDKSASTAYMELSSLRSEDTAVYYCARGTRAYHYWGQGTMVTVSS VL: DIQMTQSPSSLSASVGDRVTITCRASDNLYSNAAWYQQKPGKSPKLLVYDATNLADGVPSRFSGSGSGTDYTLTISSLQPEDFATYYCQHFWGTPLTFGQGTKVEIK | 0.1 ng/mL | 0.05 ng/mL |
| hu15G11.v5 IgG Ala variant T28A (HVR-H1) (antibody, name in Kabat numbering, V domains shown, IgG in cell culture supernatant) VH: EVQLVQSGAEVKKPGASVKVSCKASGYAFTSYWMHWVRQAPGQRLEWIGEINPTNGRTNYIEKFKSRATLTVDKSASTAYMELSSLRSEDTAVYYCARGTRAYHYWGQGTMVTVSS VL: DIQMTQSPSSLSASVGDRVTITCRASDNLYSNLAWYQQKPGKSPKLLVYDATNLADGVPSRFSGSGSGTDYTLTISSLQPEDFATYYCQHFWGTPLTFGQGTKVEIK | 0.8 ng/mL | 0.4 ng/mL |
| hu15G11.v5 IgG Ala variant S31A (HVR-H1) (antibody, name in Kabat numbering, V domains shown, IgG in cell culture supernatant; also called S31A (heavy chain)) VH: EVQLVQSGAEVKKPGASVKVSCKASGYTFTAYWMHWVRQAPGQRLEWIGEINPTNGRTNYIEKFKSRATLTVDKSASTAYMELSSLRSEDTAVYYCARGTRAYHYWGQGTMVTVSS VL: DIQMTQSPSSLSASVGDRVTITCRASDNLYSNLAWYQQKPGKSPKLLVYDATNLADGVPSRFSGSGSGTDYTLTISSLQPEDFATYYCQHFWGTPLTFGQGTKVEIK | 0.1 ng/mL | 0.05 ng/mL |
| hu15G11.v5 IgG Ala variant S31A (HVR-L1) (antibody, V domains shown, IgG in cell culture supernatant; also called S31A (light chain)) VH: EVQLVQSGAEVKKPGASVKVSCKASGYTFTSYWMHWVRQAPGQRLEWIGEINPTNGRTNYIEKFKSRATLTVDKSASTAYMELSSLRSEDTAVYYCARGTRAYHYWGQGTMVTVSS VL: DIQMTQSPSSLSASVGDRVTITCRASDNLYANLAWYQQKPGKSPKLLVYDATNLADGVPSRFSGSGSGTDYTLTISSLQPEDFATYYCQHFWGTPLTFGQGTKVEIK | 0.7 ng/mL | 0.3 ng/mL |
| hu15G11.v5 IgG Ala variant N32A (HVR-L1) (antibody, V domains shown, IgG in cell culture supernatant) VH: EVQLVQSGAEVKKPGASVKVSCKASGYTFTSYWMHWVRQAPGQRLEWIGEINPTNGRTNYIEKFKSRATLTVDKSASTAYMELSSLRSEDTAVYYCARGTRAYHYWGQGTMVTVSS VL: DIQMTQSPSSLSASVGDRVTITCRASDNLYSALAWYQQKPGKSPKLLVYDATNLADGVPSRFSGSGSGTDYTLTISSLQPEDFATYYCQHFWGTPLTFGQGTKVEIK | 4 ng/mL | 1.6 ng/mL |
| hu15G11.v5 IgG Ala variant R24A (HVR-L1) (antibody, V domains shown, IgG in cell culture supernatant) VH: EVQLVQSGAEVKKPGASVKVSCKASGYTFTSYWMHWVRQAPGQRLEWIGEINPTNGRTNYIEKFKSRATLTVDKSASTAYMELSSLRSEDTAVYYCARGTRAYHYWGQGTMVTVSS VL: DIQMTQSPSSLSASVGDRVTITCAASDNLYSNLAWYQQKPGKSPKLLVYDATNLADGVPSRFSGSGSGTDYTLTISSLQPEDFATYYCQHFWGTPLTFGQGTKVEIK | 0.4 ng/mL | 0.1 ng/mL |
| hu15G11.v5 IgG Ala variant S26A (HVR-L1) (antibody, V domains shown, IgG in cell culture supernatant) VH: EVQLVQSGAEVKKPGASVKVSCKASGYTFTSYWMHWVRQAPGQRLEWIGEINPTNGRTNYIEKFKSRATLTVDKSASTAYMELSSLRSEDTAVYYCARGTRAYHYWGQGTMVTVSS VL: DIQMTQSPSSLSASVGDRVTITCRAADNLYSNLAWYQQKPGKSPKLLVYDATNLADGVPSRFSGSGSGTDYTLTISSLQPEDFATYYCQHFWGTPLTFGQGTKVEIK | 0.6 ng/mL | 0.2 ng/mL |
| hu15G11.v5 IgG Ala variant P52aA (HVR-H2) (antibody, name in Kabat numbering, V domains shown, IgG in cell culture supernatant) VH: EVQLVQSGAEVKKPGASVKVSCKASGYTFTSYWMHWVRQAPGQRLEWIGEINATNGRTNYIEKFKSRATLTVDKSASTAYMELSSLRSEDTAVYYCARGTRAYHYWGQGTMVTVSS VL: DIQMTQSPSSLSASVGDRVTITCRASDNLYSNLAWYQQKPGKSPKLLVYDATNLADGVPSRFSGSGSGTDYTLTISSLQPEDFATYYCQHFWGTPLTFGQGTKVEIK | 8.1 ng/mL | 3.9 ng/mL |
| hu15G11.v5 IgG Ala variant S65A (HVR-H2) (antibody, name in Kabat numbering, V domains shown, IgG in cell culture supernatant; Kabat numbers after 52a lie one below the linear count) VH: EVQLVQSGAEVKKPGASVKVSCKASGYTFTSYWMHWVRQAPGQRLEWIGEINPTNGRTNYIEKFKARATLTVDKSASTAYMELSSLRSEDTAVYYCARGTRAYHYWGQGTMVTVSS VL: DIQMTQSPSSLSASVGDRVTITCRASDNLYSNLAWYQQKPGKSPKLLVYDATNLADGVPSRFSGSGSGTDYTLTISSLQPEDFATYYCQHFWGTPLTFGQGTKVEIK | 0.7 ng/mL | 0.2 ng/mL |
| hu15G11.v5 IgG Ala variant N28A (HVR-L1) (antibody, V domains shown, IgG in cell culture supernatant) VH: EVQLVQSGAEVKKPGASVKVSCKASGYTFTSYWMHWVRQAPGQRLEWIGEINPTNGRTNYIEKFKSRATLTVDKSASTAYMELSSLRSEDTAVYYCARGTRAYHYWGQGTMVTVSS VL: DIQMTQSPSSLSASVGDRVTITCRASDALYSNLAWYQQKPGKSPKLLVYDATNLADGVPSRFSGSGSGTDYTLTISSLQPEDFATYYCQHFWGTPLTFGQGTKVEIK | 0.8 ng/mL | 0.2 ng/mL |
| hu15G11.v5 IgG Ala variant N52A (HVR-H2) (antibody, V domains shown, IgG in cell culture supernatant; also called 15G11.N52A; 15G11.52A) VH: EVQLVQSGAEVKKPGASVKVSCKASGYTFTSYWMHWVRQAPGQRLEWIGEIAPTNGRTNYIEKFKSRATLTVDKSASTAYMELSSLRSEDTAVYYCARGTRAYHYWGQGTMVTVSS VL: DIQMTQSPSSLSASVGDRVTITCRASDNLYSNLAWYQQKPGKSPKLLVYDATNLADGVPSRFSGSGSGTDYTLTISSLQPEDFATYYCQHFWGTPLTFGQGTKVEIK | 0.9 ng/mL | 0.3 ng/mL |
| hu15G11.v5 IgG Ala variant L54A (HVR-L2) (antibody, V domains shown, IgG in cell culture supernatant) VH: EVQLVQSGAEVKKPGASVKVSCKASGYTFTSYWMHWVRQAPGQRLEWIGEINPTNGRTNYIEKFKSRATLTVDKSASTAYMELSSLRSEDTAVYYCARGTRAYHYWGQGTMVTVSS VL: DIQMTQSPSSLSASVGDRVTITCRASDNLYSNLAWYQQKPGKSPKLLVYDATNAADGVPSRFSGSGSGTDYTLTISSLQPEDFATYYCQHFWGTPLTFGQGTKVEIK | 0.5 ng/mL | 0.4 ng/mL |
| hu15G11.v5 IgG Ala variant M34A (HVR-H1) (antibody, name in Kabat numbering, V domains shown, IgG in cell culture supernatant) VH: EVQLVQSGAEVKKPGASVKVSCKASGYTFTSYWAHWVRQAPGQRLEWIGEINPTNGRTNYIEKFKSRATLTVDKSASTAYMELSSLRSEDTAVYYCARGTRAYHYWGQGTMVTVSS VL: DIQMTQSPSSLSASVGDRVTITCRASDNLYSNLAWYQQKPGKSPKLLVYDATNLADGVPSRFSGSGSGTDYTLTISSLQPEDFATYYCQHFWGTPLTFGQGTKVEIK | 1.1 ng/mL | 0.4 ng/mL |
